Experimental data as given in patent US20120027739A1.

Target: … HLA-A*01 complex (soluble, biotinylated)
Assay: BIAcore SPR; pHLA immobilised via biotin, soluble TCR injected

B1: soluble disulfide-linked MAGE-A3 TCR: alpha chain with variable domain SEQ ID No: 8, reference TCR beta chain (TCR, V domains shown)
V domain 1: KQEVTQIPAALSVPEGENLVLNCSFTDSAIYNLQWFRQDPGKGLTSLLLVRPYQREQTSGRLNASLDKSSGRSTLYIAASQPGDSATYLCAVRPGGAGSYQLTFGKGTKLSVIP
V domain 2: KAGVTQTPRYLIKTRGQQVTLSCSPISGHRSVSWYQQTPGQGLQFLFEYFSETQRNKGNFPGRFSGRQFSNSRSEMNVSTLELGDSALYLCASSPNMADEQYFGPGTRLTVTE
Work on B1 yielded a Kd of 6.55 µM, a T½ of 6.1 s and a koff of 0.114 s⁻¹.
